Assay results published in patent publication US20130309248A1.

Legend:
[1] = biological target: full-length recombinant H1 HA (A/New Caledonia/20/1999) on PER.C6 cells (influenza A virus (H1N1)); assay: FACS, IgG 5 µg/ml, HA-expressing PER.C6 cells; untransfected MFI 21
[2] = biological target: full-length recombinant H7 HA (A/Netherlands/219/2003) on PER.C6 cells (influenza A virus (H7N7)); assay: as above
[3] = biological target: full-length recombinant H3 HA (A/Wisconsin/67/2005) on PER.C6 cells (influenza A virus (H3N2)); assay: as above
[4] = biological target: HA of virus A/Brisbane/59/2007 (H1N1) (influenza A virus (H1N1)); assay: cell-based or functional assay
[5] = biological target: HA of virus A/New Caledonia/20/1999 (H1N1) (influenza A virus (H1N1)); assay: cell-based or functional assay
[6] = biological target: HA of virus A/Johannesburg/33/94 (H3N2) (influenza A virus (H3N2)); assay: cell-based or functional assay
[7] = biological target: HA of virus A/Panama/2000/1999 (H3N2) (influenza A virus (H3N2)); assay: cell-based or functional assay
[8] = biological target: HA of virus A/Wisconsin/67/2005 (H3N2) (influenza A virus (H3N2)); assay: cell-based or functional assay
[9] = biological target: HA of virus A/Hiroshima/52/2005 (H3N2) (influenza A virus (H3N2)); assay: cell-based or functional assay
[10] = biological target: HA of virus A/Mallard/Netherlands/12/2000 (H7N3) (influenza A virus (H7N3)); assay: cell-based or functional assay
[11] = biological target: HA of virus A/Solomon Islands/IVR-145 (H1N1) (influenza A virus (H1N1)); assay: cell-based or functional assay
[12] = biological target: HA of virus A/Chick/Germany/N/49 (H10) (influenza A virus (H10)); assay: cell-based or functional assay
[13] = biological target: full-length recombinant H1 HA (A/New Caledonia/20/1999) on PER.C6 cells (influenza A virus (H1N1)); assay: FACS, IgG 5 µg/ml, HA-expressing PER.C6 cells; untransfected MFI 6
[14] = biological target: full-length recombinant H7 HA (A/Netherlands/219/2003) on PER.C6 cells (influenza A virus (H7N7)); assay: as above
[15] = biological target: full-length recombinant H3 HA (A/Wisconsin/67/2005) on PER.C6 cells (influenza A virus (H3N2)); assay: as above

B1: CR8055 (antibody, V domains shown)
VH: EIVLTQSPDFQSVAPKEKVTITCRASRSIGSDLHWFQQRPDQSPKLLIKFASQSMSGVPSRFSGSGSGRDFTLTISSLEAEDAATYYCHQSSSLPLT
VL: EVQLVESGGGLVQPGGSLRLSCAASGFTDSVIFMSWVRQAPGKGLECVSIIYIDDSTYYADSVKGRFTISRHNSMGTVFLEMNSLRPDDTAVYYCATESGDFGDQTGPYHYYAMDV
B1 gave an MFI [1] of 31 MFI, an MFI [2] of 26 MFI and an MFI [3] of 433 MFI. For the same binder, the Neutralization titer SK50 [4] was greater than 40 µg/mL, the Neutralization titer SK50 [5] was greater than 40 µg/mL and the Neutralization titer SK50 [6] was 3.38 µg/mL. It also gave a Neutralization titer SK50 [7] greater than 40 µg/mL, a Neutralization titer SK50 [8] of 1.07 µg/mL and a Neutralization titer SK50 [9] of 1.15 µg/mL. For the same binder, the Neutralization titer SK50 [10] was greater than 40 µg/mL, the Neutralization titer SK50 [11] was greater than 40 µg/mL and the Neutralization titer SK50 [12] was greater than 40 µg/mL.

B2: CR8050 (antibody, V domains shown)
VH: EIVMTQSPGTLSLSPGERATLSCRASQSVSRNYLAWYQQKPGLAPRLLISGASSRATGVPDRFSGRGSDTDFTLTISRLEPEDFAVYYCQHYGSVLVA
VL: QVQLQESGPGLVKPSETLSLTCTVSGGSVSSGTYYWSWIRQPPGKGLEWIGDISYSGSTNYNPSLKSRVTISRDTSKNLVSLKLTSVTAADTAVHYCARAMAAYNYDRGGYNDYYYMDV
B2 gave a Neutralization titer SK50 [6] of 1.49 µg/mL, a Neutralization titer SK50 [7] of 6.5 µg/mL and a Neutralization titer SK50 [8] of 1.77 µg/mL. The Neutralization titer SK50 [10] was greater than 40 µg/mL, the Neutralization titer SK50 [12] was greater than 40 µg/mL and the MFI [13] was 8 MFI. The MFI [14] was 6 MFI and the MFI [15] was 282 MFI.
